Results as given in FireProtDB (doi:10.1021/bi00252a018).

B1: Subtilisin inhibitor, P01006 (parent)
chain: MRNTGAGPSPSVSRPPPSAAPLSGAALAAPGDAPSALYAPSALVLTVGKGVSATTAAPERAVTLTCAPGPSGTHPAAGSACADLAAVGGDLNALTRGEDVMCPMVYDPVLLTVDGVWQGKRVSYERVFSNECEMNAHGSSVFAF

Variants of: B1
Details: Streptomyces albogriseolus; pH 2.3; Thermal; DSC; glycine 25 mM; reversible: yes (70-85%); structure 3SSI; whole UniProt chain shown
With MRNTGAGPSPSVSRPPPSAAPLSGAALAAPGDAPSALYAPSALVLTVGKGVSATTAAPERAVTLTCAPGPSGTHPAAGSACADLAAVGGDLNALTRGEDVMCPMVYDPVLLTVCGVWQGKRVSYERVFSNECEMNAHGSSVFAF [D114C] the Tm was 48 °C.

Same assay, conditions: Streptomyces albogriseolus; pH 2.4; Thermal; DSC; glycine 25 mM; reversible: yes (70-85%); structure 3SSI; whole UniProt chain shown
Variant MRNTGAGPSPSVSRPPPSAAPLSGAALAAPGDAPSALYAPSALVLTVGKGVSATTAAPERAVTLTCAPGPSGTHPAAGSACADLAAVGGDLNALTRGEDVMCPMVYDPVLLTVCGVWQGKRVSYERVFSNECEMNAHGSSVFAF [D114C] has a Tm of 50 °C.

Same assay, conditions: Streptomyces albogriseolus; pH 2.5; Thermal; DSC; glycine 25 mM; reversible: yes (70-85%); structure 3SSI; whole UniProt chain shown
In the case of MRNTGAGPSPSVSRPPPSAAPLSGAALAAPGDAPSALYAPSALVLTVGKGVSATTAAPERAVTLTCAPGPSGTHPAAGSACADLAAVGGDLNALTRGEDVMCPMVYDPVLLTVCGVWQGKRVSYERVFSNECEMNAHGSSVFAF [D114C], the Tm is reported as 52.5 °C.

Same assay, conditions: Streptomyces albogriseolus; pH 2.56; Thermal; DSC; glycine 25 mM; reversible: yes (70-85%); structure 3SSI; whole UniProt chain shown
In the case of MRNTGAGPSPSVSRPPPSAAPLSGAALAAPGDAPSALYAPSALVLTVGKGVSATTAAPERAVTLTCAPGPSGTHPAAGSACADLAAVGGDLNALTRGEDVMCPMVYDPVLLTVCGVWQGKRVSYERVFSNECEMNAHGSSVFAF [D114C], the Tm is reported as 53.2 °C.

Same assay, conditions: Streptomyces albogriseolus; pH 2.59; Thermal; DSC; glycine 25 mM; reversible: yes (70-85%); structure 3SSI; whole UniProt chain shown
MRNTGAGPSPSVSRPPPSAAPLSGAALAAPGDAPSALYAPSALVLTVGKGVSATTAAPERAVTLTCAPGPSGTHPAAGSACADLAAVGGDLNALTRGEDVMCPMVYDPVLLTVCGVWQGKRVSYERVFSNECEMNAHGSSVFAF [D114C] gave a Tm of 54.2 °C.

Same assay, conditions: Streptomyces albogriseolus; pH 2.68; Thermal; DSC; glycine 25 mM; reversible: yes (70-85%); structure 3SSI; whole UniProt chain shown
In the case of MRNTGAGPSPSVSRPPPSAAPLSGAALAAPGDAPSALYAPSALVLTVGKGVSATTAAPERAVTLTCAPGPSGTHPAAGSACADLAAVGGDLNALTRGEDVMCPMVYDPVLLTVCGVWQGKRVSYERVFSNECEMNAHGSSVFAF [D114C], the Tm is reported as 56.2 °C.

Same assay, conditions: Streptomyces albogriseolus; pH 2.8; Thermal; DSC; glycine 25 mM; reversible: yes (70-85%); structure 3SSI; whole UniProt chain shown
Work on MRNTGAGPSPSVSRPPPSAAPLSGAALAAPGDAPSALYAPSALVLTVGKGVSATTAAPERAVTLTCAPGPSGTHPAAGSACADLAAVGGDLNALTRGEDVMCPMVYDPVLLTVCGVWQGKRVSYERVFSNECEMNAHGSSVFAF [D114C] yielded a Tm of 58.8 °C.

Same assay, conditions: Streptomyces albogriseolus; pH 2.88; Thermal; DSC; glycine 25 mM; reversible: yes (70-85%); structure 3SSI; whole UniProt chain shown
Work on MRNTGAGPSPSVSRPPPSAAPLSGAALAAPGDAPSALYAPSALVLTVGKGVSATTAAPERAVTLTCAPGPSGTHPAAGSACADLAAVGGDLNALTRGEDVMCPMVYDPVLLTVCGVWQGKRVSYERVFSNECEMNAHGSSVFAF [D114C] yielded a Tm of 59.9 °C.

Same assay, conditions: Streptomyces albogriseolus; pH 2.89; Thermal; DSC; glycine 25 mM; reversible: yes (70-85%); structure 3SSI; whole UniProt chain shown
MRNTGAGPSPSVSRPPPSAAPLSGAALAAPGDAPSALYAPSALVLTVGKGVSATTAAPERAVTLTCAPGPSGTHPAAGSACADLAAVGGDLNALTRGEDVMCPMVYDPVLLTVCGVWQGKRVSYERVFSNECEMNAHGSSVFAF [D114C] showed a Tm of 60.5 °C.

Same assay, conditions: Streptomyces albogriseolus; pH 2.94; Thermal; DSC; glycine 25 mM; reversible: yes (70-85%); structure 3SSI; whole UniProt chain shown
With MRNTGAGPSPSVSRPPPSAAPLSGAALAAPGDAPSALYAPSALVLTVGKGVSATTAAPERAVTLTCAPGPSGTHPAAGSACADLAAVGGDLNALTRGEDVMCPMVYDPVLLTVCGVWQGKRVSYERVFSNECEMNAHGSSVFAF [D114C] the Tm was 61.2 °C and the “change of melting temperature, mutant - wild type (higher = more stable)” value (from here on “change of melting temperature, mutant”) was 17.2 °C.

Same assay, conditions: Streptomyces albogriseolus; pH 3.04; Thermal; DSC; glycine 25 mM; reversible: yes (70-85%); structure 3SSI; whole UniProt chain shown
With MRNTGAGPSPSVSRPPPSAAPLSGAALAAPGDAPSALYAPSALVLTVGKGVSATTAAPERAVTLTCAPGPSGTHPAAGSACADLAAVGGDLNALTRGEDVMCPMVYDPVLLTVCGVWQGKRVSYERVFSNECEMNAHGSSVFAF [D114C] the Tm was 63.2 °C and the “change of melting temperature, mutant” value was 15.6 °C.

Same assay, conditions: Streptomyces albogriseolus; pH 3.07; Thermal; DSC; glycine 25 mM; reversible: yes (70-85%); structure 3SSI; whole UniProt chain shown
In the case of MRNTGAGPSPSVSRPPPSAAPLSGAALAAPGDAPSALYAPSALVLTVGKGVSATTAAPERAVTLTCAPGPSGTHPAAGSACADLAAVGGDLNALTRGEDVMCPMVYDPVLLTVCGVWQGKRVSYERVFSNECEMNAHGSSVFAF [D114C], the Tm is reported as 64.5 °C and the “change of melting temperature, mutant” value is reported as 15.7 °C.

Same assay, conditions: Streptomyces albogriseolus; pH 3.16; Thermal; DSC; glycine 25 mM; reversible: yes (70-85%); structure 3SSI; whole UniProt chain shown
With MRNTGAGPSPSVSRPPPSAAPLSGAALAAPGDAPSALYAPSALVLTVGKGVSATTAAPERAVTLTCAPGPSGTHPAAGSACADLAAVGGDLNALTRGEDVMCPMVYDPVLLTVCGVWQGKRVSYERVFSNECEMNAHGSSVFAF [D114C] the Tm was 66.5 °C and the “change of melting temperature, mutant” value was 14.3 °C.

Same assay, conditions: Streptomyces albogriseolus; pH 3.25; Thermal; DSC; glycine 25 mM; reversible: yes (70-85%); structure 3SSI; whole UniProt chain shown
In the case of MRNTGAGPSPSVSRPPPSAAPLSGAALAAPGDAPSALYAPSALVLTVGKGVSATTAAPERAVTLTCAPGPSGTHPAAGSACADLAAVGGDLNALTRGEDVMCPMVYDPVLLTVCGVWQGKRVSYERVFSNECEMNAHGSSVFAF [D114C], the Tm is reported as 68.8 °C and the “change of melting temperature, mutant” value is reported as 13.1 °C.

Same assay, conditions: Streptomyces albogriseolus; pH 7; Thermal; DSC; phosphate 25 mM; reversible: yes (70-85%); structure 3SSI; whole UniProt chain shown
With MRNTGAGPSPSVSRPPPSAAPLSGAALAAPGDAPSALYAPSALVLTVGKGVSATTAAPERAVTLTCAPGPSGTHPAAGSACADLAAVGGDLNALTRGEDVMCPMVYDPVLLTVCGVWQGKRVSYERVFSNECEMNAHGSSVFAF [D114C] the Tm was 95.3 °C and the “change of melting temperature, mutant” value was 13.3 °C.

Same assay, conditions: Streptomyces albogriseolus; pH 9.5; Thermal; DSC; glycine 25 mM; reversible: yes (70-85%); structure 3SSI; whole UniProt chain shown
In the case of MRNTGAGPSPSVSRPPPSAAPLSGAALAAPGDAPSALYAPSALVLTVGKGVSATTAAPERAVTLTCAPGPSGTHPAAGSACADLAAVGGDLNALTRGEDVMCPMVYDPVLLTVCGVWQGKRVSYERVFSNECEMNAHGSSVFAF [D114C], the Tm is reported as 95 °C and the “change of melting temperature, mutant” value is reported as 14.3 °C.

Same assay, conditions: Streptomyces albogriseolus; pH 9.75; Thermal; DSC; glycine 25 mM; reversible: yes (70-85%); structure 3SSI; whole UniProt chain shown
With MRNTGAGPSPSVSRPPPSAAPLSGAALAAPGDAPSALYAPSALVLTVGKGVSATTAAPERAVTLTCAPGPSGTHPAAGSACADLAAVGGDLNALTRGEDVMCPMVYDPVLLTVCGVWQGKRVSYERVFSNECEMNAHGSSVFAF [D114C] the Tm was 94.8 °C and the “change of melting temperature, mutant” value was 14.6 °C.
